In patent US20260317782 (published 2026):

Target: wild type tau (human, UniProt P10636)
Assay: ELISA

Sequence of wild type tau (P10636 2-758): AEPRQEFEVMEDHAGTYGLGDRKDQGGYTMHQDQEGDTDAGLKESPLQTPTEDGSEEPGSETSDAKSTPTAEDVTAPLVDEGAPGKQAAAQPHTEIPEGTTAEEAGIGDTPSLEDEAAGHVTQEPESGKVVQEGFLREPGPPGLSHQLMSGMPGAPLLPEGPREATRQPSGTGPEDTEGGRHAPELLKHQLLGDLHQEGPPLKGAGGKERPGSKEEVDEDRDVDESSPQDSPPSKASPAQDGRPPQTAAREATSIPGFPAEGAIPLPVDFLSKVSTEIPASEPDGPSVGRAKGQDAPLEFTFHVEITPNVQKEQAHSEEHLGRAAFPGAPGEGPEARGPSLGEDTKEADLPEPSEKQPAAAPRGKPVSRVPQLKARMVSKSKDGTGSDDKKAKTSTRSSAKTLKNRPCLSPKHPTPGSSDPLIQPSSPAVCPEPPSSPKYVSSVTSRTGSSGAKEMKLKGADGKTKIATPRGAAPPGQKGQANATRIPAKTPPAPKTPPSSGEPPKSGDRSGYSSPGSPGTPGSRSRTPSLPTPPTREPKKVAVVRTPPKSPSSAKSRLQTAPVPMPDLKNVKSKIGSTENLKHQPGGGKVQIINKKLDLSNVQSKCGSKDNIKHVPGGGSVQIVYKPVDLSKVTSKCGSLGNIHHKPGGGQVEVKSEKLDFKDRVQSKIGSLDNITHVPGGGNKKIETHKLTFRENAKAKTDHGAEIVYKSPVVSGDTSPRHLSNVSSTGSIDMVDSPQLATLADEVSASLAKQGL

binding result | Binder
no binding | V0024 (antibody, V domains shown, non-phosphorylated) VH: QVQLQQPGTELVKPGASVKLSCKASGYTFTRFWMHWVKQRPGQGLEWIGNINPNNGGTDNNERFKSKATLTVDRSSSTAYMQLSSLTSEDSAVYYCARGTGTGAMDYWGQGTSVTVSS VL: DVVMTQTPLSLPVSLGDQASISCRSSQSLVHSNGNTHLYWYLQKPGQSPKLLIYRVSSRFSGVPDRFSGSGSGTDFTLKISRVEAEDLGVYFCFQGTHVPRTFGGGTKLEIK
no binding | V0004 (antibody, V domains shown, non-phosphorylated) VH: QVQLQQPGAELVKPGASVKLSCKASDYTFTNYWMHWVKQRPGRGLEWIGRIDPNSGGTRYNEKFKNKATLTVDKPSSTAYMHLSSLTSEDSAVYYCAGDFDVWGTGTTVTVSS VL: DIQMTQSPASLSASVGETVTITCRASGNIHNYLAWYQQRQGKSPQLLVYNAKTLPDGVPSRFSGSGSGTQYSLKINSLQPEDFGSYCCQHFWSTPLTFGAGTKLELK
no binding | V0009 (antibody, V domains shown, non-phosphorylated) VH: EVQLVESGGALVQPGGSLSLSCAASGFTFTDYYMSWVRQPPGKALEWLALIRNKAKGFTTEYSASVKGRFTISRDNSQSILLFQMNDLRADDSATYYCVRDINYWGQGTTLTVSS VL: not shown
